Data published in patent US20090196880A1 (VASGENE THERAPEUTICS, published 2009).

B1: mouse monoclonal antibody #131 (antibody, V domains shown)
VH: QVQLKQSGAELVKPGASVKISCKASGYTFTDYYINWVKQRPGQGLEWIGKIGPRIGTNYYNENFKGKATLTADISSNTAYMQLHTLTSEDSAVYFCARSEDYSGYVSYALDYWGQGTSVTVSS
VL: NIVMTQSPKSMSMSVGERVTLSCKASENVDTYVSWYQQKPDQSPELLIYGASNRYTGVPDRFTGSGSATDFTLTISSVQAEDLADYHCGQTYRYPFTFGGGTKLEIK
notes: also called m131
B2: mouse monoclonal antibody #47 (antibody, V domains shown)
VH: EVQLQQSGPELVKPGASVKISCKASGYTFTDYYMNWVKQSHGKGLEWIGDNNPNNGGTTYNQKFKGKATLTVDKSSSTAYMELRSLTSEDSAVYYCARGKYYGTSYGWYFDVWGTGTTVTVSS
VL: DIQMTQSPASLSASVGETVTITCRISDNIDSYLAWFQQKQGKSPQLLVYDATVLADGVPSRFSGSGSGTQYSLKINSLQSEDAARYYCQVYYSIPWTFGGGTKLEIK
notes: also called m47; Mu #47

Molecular target: T1, EphB4 in whole cell lysate of 293 cells stably transfected with EphB4 (human, UniProt P54760 16-987)
T1 construct: Denatured protein from the lysate of transfected 293 cells (Western blot)
T1 sequence: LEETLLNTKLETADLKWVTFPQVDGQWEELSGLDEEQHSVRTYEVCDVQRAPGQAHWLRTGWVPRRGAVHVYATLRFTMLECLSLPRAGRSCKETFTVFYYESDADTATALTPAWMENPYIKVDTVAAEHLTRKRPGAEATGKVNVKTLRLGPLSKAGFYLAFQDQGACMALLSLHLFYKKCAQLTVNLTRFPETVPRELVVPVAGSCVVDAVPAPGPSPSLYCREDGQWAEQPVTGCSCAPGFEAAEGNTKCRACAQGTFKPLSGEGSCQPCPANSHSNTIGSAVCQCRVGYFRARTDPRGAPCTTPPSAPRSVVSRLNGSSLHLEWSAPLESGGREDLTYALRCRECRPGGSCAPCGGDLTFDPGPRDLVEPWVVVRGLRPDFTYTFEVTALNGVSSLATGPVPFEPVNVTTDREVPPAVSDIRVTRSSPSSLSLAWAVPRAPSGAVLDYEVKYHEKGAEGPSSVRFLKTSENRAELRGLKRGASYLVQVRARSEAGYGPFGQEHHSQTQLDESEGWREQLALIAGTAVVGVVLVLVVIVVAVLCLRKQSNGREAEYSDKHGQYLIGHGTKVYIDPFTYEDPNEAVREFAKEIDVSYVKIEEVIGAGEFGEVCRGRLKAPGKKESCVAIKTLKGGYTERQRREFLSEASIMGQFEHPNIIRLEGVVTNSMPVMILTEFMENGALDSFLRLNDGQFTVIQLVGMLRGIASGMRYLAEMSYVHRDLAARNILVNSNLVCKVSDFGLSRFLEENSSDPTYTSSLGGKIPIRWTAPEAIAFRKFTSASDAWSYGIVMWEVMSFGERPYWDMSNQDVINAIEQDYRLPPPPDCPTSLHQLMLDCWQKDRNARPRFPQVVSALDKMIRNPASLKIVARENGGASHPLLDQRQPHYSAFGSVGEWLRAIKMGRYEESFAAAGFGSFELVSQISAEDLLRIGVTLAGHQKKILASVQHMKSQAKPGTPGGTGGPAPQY
Assay: Western blot on lysate of EphB4-transfected 293 cells

| Binder | binding result |
| --- | --- |
| B1 | binds |
| B2 | binds |
